Assay results: article PMC3157396, “Molecular Basis for the Recognition of Adenomatous Polyposis Coli by the Discs Large 1 Protein” (PLoS ONE, 2011)

B1: PDZ2 domain of human DLG1 with the point mutation Q340P (domain or fragment, UniProt Q12959 315-410, looked up)
chain: EKIMEIKLIKGPKGLGFSIAGGVGNPHIPGDNSIYVTKIIEGGAAHKDGKLQIGDKLLAVNNVCLEEVTHEEAVTALKNTSDFVYLKVAKPTSMYM
notes: human DLG1 PDZ2 domain, residues 315-410, Q340P; also called PDZ2 Q340P; PDZ2-Q340P; source: E. coli BL21 (DE3), purified
B2: GST-tagged C-terminal 11 residues of human Adenomatous Polyposis Coli (APC), residues 2833–2843 (peptide)
chain: RHSGSYLVTSV
notes: human Adenomatous Polyposis Coli (APC), C-terminal 11 residues, 2833-2843 of the 2,843-residue protein; cloned into pGEX4T1; also called GST-APC-C11; APC-C11; not shown: GST, N-terminal, kept

How the values were obtained:
[1] = biological target: B2; assay: ITC; ITC200, 25°C, 50 mM HEPES pH 7.5, 100 mM NaCl; PDZ domain (400 µM) injected 20 times in 2 µl aliquots into 40 µM GST-tagged APC-C11 or APC-C4; single site binding model; conditions: both partners purified
[2] = biological target: B1; assay: as above; conditions: both partners purified

| dH [1] [kcal/mol] | stoichiometry N [1] | Kd [2] [µM] | Binder |
| --- | --- | --- | --- |
| -7.09 ± 0.19 | 0.916 ± 0.018 |  | PDZ2 domain of human Discs Large 1 (DLG1), residues 315–410 (domain or fragment, UniProt Q12959 315-410, looked up, human Discs Large 1/Synapse Associated Protein 97 (DLG1), PDZ2 domain, residues 315-410; cloned into a pET28a-derived vector; also called WT PDZ2; second PDZ domain of DLG1; source: E. coli BL21 (DE3), purified (Ni2+-NTA, Superdex 200 gel filtration)) EKIMEIKLIKGPKGLGFSIAGGVGNQHIPGDNSIYVTKIIEGGAAHKDGKLQIGDKLLAVNNVCLEEVTHEEAVTALKNTSDFVYLKVAKPTSMYM |
| -6.76 ± 0.27 | 1.04 ± 0.03 |  | B1 |
|  |  | 9.8 ± 1.11 | B2 |
